One molecule from patent US20220380473A1, “ANTI-GAL3 ANTIBODIES AND USES THEREOF” (TrueBinding, Inc., priority 2019, published 2022) can be followed below.

One assay relates to a-SMA and fibronectin. Put plainly: N-IF mouse liver fibrosis, western blot of fibrosis markers. Format: in vivo. The settings on record: 10 mg/kg every fourth day for 40 days, vs mIgG2b. As for the experimental part: N-IF mice were generated by crossing 24αβNOD mice and NOD.Rag2−/− mouse strains. The N-IF mice were backcrossed with the B6.Rag2−/− mouse strains for 10 generations. Mice (male and female) were separated into two groups: IMT001 antibody treatment group and mIgG2b antibody control group. Antibodies were administered to the animals every fourth day for 40 days, at 10 mg/kg body weight and the animals were subsequently sacrificed. All efforts were made to minimize suffering. Liver and Kidney tissues were collected and snap frozen in liquid nitrogen for western blot analysis. Tissue processing and western blot analysis were performed as in Example 19. GAPDH was used a loading control reference.

The test system of assay [1] is mouse unilateral ureteral obstruction (UUO) model of kidney fibrosis. The experiment in a line: Mouse UUO model of kidney fibrosis (Example 32). Format: in vivo. The settings on record: administered one day after UUO surgery. The source says:
To further evaluate the ability of GAL3-targeted antibodies with the ability to block TIM3-GAL3 assembly to impact fibrosis, we evaluated the impact of humanized IMT001-4 and IMT006-1 in the mouse unilateral ureteral obstruction (UUO) model of kidney fibrosis. Briefly, 8-week-old C57BL/6J male mice were divided into sham, UUO with HuIgG4−, and UUO with HuIMT001-4, HuIMT006-1, and UUO with metformin-treatment. HuIgG4, HuIMT001-4 and HuIMT006-1 were each administered by intraperitoneal route at 10 mg/kg Q2Dx3 whereas metformin (500 mg/kg/day) was administered to mice dissolved in drinking water. In some settings therapeutic antibodies or metformin was administered 1 day before UUO, whereas in other experiments therapeutic antibodies or metformin was administered 1 day after UUO. After 7 days of UUO surgery, mice were sacrificed, left kidney was harvested and fixed with 4% paraformaldehyde for immunohistochemistry (IHC) and blood was collected in Heparin-EDTA tubes for blood biochemistry analysis. Levels of plasma mouse TIM-1/KIM-1/HAVCR were measured using a commercial ELISA kit (Catalog #MKM100; R&D Systems, Minneapolis, Minn.) according to the protocol provided by the manufacturer. Levels of plasma mouse Lipocalin-2/NGAL were measured using a commercial ELISA kit (Catalog #DY1857; R&D Systems, Minneapolis, Minn.) according to the protocol provided by the manufacturer. 5 um sections of fixed kidney specimens were produced and processed for picosirius red staining as described for liver specimens above.
To evaluate the robustness of TIM3-GAL3 blocking antibodies in reducing kidney fibrosis, the ability of mIMT001 to inhibit fibrosis when administered one day after UUO surgery was evaluated. Following UUO surgery and treatment with isotype or control antibodies, kidney specimens were harvested and stained by IHC for Collagen 1a1 (Col1a1), a marker of kidney fibrosis.

The test system of assay [2] is mouse macrophage cell line RAW264.7. The experiment in a line: IHC and flow cytometry staining of RAW mouse macrophages. Format: cell-based. As for the experimental part:
The expression of Gal3 on mouse macrophages was detected by both IHC and Flow cytometry analysis. In the details of IHC, 100,000 cells per well were seeded overnight. On the second day, cells were washed once with PBS, fixed with 3% formaldehyde at room temperature for 10 min, then washed twice with PBS and blocked in PBS containing 10% FBS and […] for 1 h at room temperature. After blocking, cells were incubated with 10 μg/mL of 1st antibody mIgG-biotin (BioLegend) or IMT001-biotin at 4° C. overnight, washed three times with PBST, stained with avidin-HRP (1:1000) at room temperature for 1 h and then washed three times again with PBST. The staining was developed using peroxidase substrate and counterstained with Hematoxylin QS (Vector Laboratories).
In the experiment of flow cytometry, 100,000 RAW cells were blocked with 10% FBS plus 200 μg/mL hIgG on ice for 20 min, and then incubated with 100 μl 10% FBS HBSS solution that contains control mIgG (BD Biosciences) or IMT001 at 10 μg/ml on ice for 20 minutes. Then cells were washed and incubated with APC conjugated anti-mFc antibodies (Jackson ImmunoResearch) at 1:100 on ice for 20 min. After spinning, live/dead cells were stained with Violet dead cell stain kit (Life Technologies). Stained cells were subjected to flow analysis.
Background: A flow cytometer gives signals particle by particle.

The test system of assay [3] is RAW macrophages/DO11.10 T cell mixed reaction. Put plainly: Mixed Lymphocyte Reaction, RAW macrophages/DO11.10 T cells, IL-2. Format: cell-based, mouse. Conditions: 10 μg/ml, overnight, vs mIgG. As for the experimental part:
RAW mouse macrophage cells were mixed with […] mouse T cells at 1:1 ratio, treated with OVA peptide, and cultured in the presence of mIgG (BD Biosciences), anti mPD1 antibody 29F (BioXCell) or IMT001 at 10 μg/ml for overnight 37° C. 50 μl of the culture medium was taken for mIL-2 measurement. The mIL-2 production was measured according to the commercial kit mouse IL-2 Elisa Ready-SET-Go from eBioscience.

In another assay the test system is hGal3 peptide. Put plainly: Gal3 peptide library ELISA (Example 25). Format: binding, human. Conditions: peptide array ELISA. In outline: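 Wells coated overnight at 4 °C with 20-mer hGal3 peptides (at least 2 μg/ml) or full-length human Gal3 (0.1 μg/ml), then blocked with 2% BSA. Anti-Gal3 hybridoma supernatants or antibodies (at least 0.1 μg/ml) bound 1 h at room temperature, detected with anti-mouse or anti-rat IgG-HRP and TMB at 450 nm.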
(ELISA stands for enzyme-linked immunosorbent assay.)

Procedure for B16F10 cells: The animal experiments were conducted according to a protocol approved by the Molecular Medicine Research Institute Institutional Animal Care and Use Committee. C57BL/6 mice were placed in a facility accredited by the Association for Assessment and Accreditation of Laboratory Animal Care upon arrival. Thirty six of 7-week old female mice were randomly assigned into three groups (n=12). On day 0, B16F10 cells (2×10^5 in 0.1 mL PBS) were washed and resuspended in PBS before injection into the tail veins of mice using a syringe with a 27-ga needle. […] On day 21, the animals were humanely sacrificed and lung tissues were removed and fixed in a 10% buffered formaldehyde solution. The number of black metastatic colonies on one surface of the left lobes in the lungs were counted (FIG. 7B). Results were expressed as mean±SEM. The statistical analysis was performed in comparison with IgG control group using one-way ANOVA.

B1: IMT001: anti-Gal3 monoclonal antibody (Immutics); printed as mIMT001 (IMT001), murine (antibody, V domains shown)
VH: QIQLVQSGPELKKPGETVKISCKASGYTFTNYGMNWVKQAPGKGLKWMGWINTNTGEPTYVEEFKGRFAFSLETSASTAYLQINNLKNEDTATYFCAPYDNFFAYWGQGTLVTVSA
VL: DIVITQDELSNPVTSGESVSISCRSSKSLLYKDGKTYLNWFLQRPGQSPQLLIYLMSTHASGVSDRFSGSGSGTDFTLEISRVKAEDVGVYYCQQLVDYPLTFGAGTKLELK
Regarding B1, the “expression of fibrotic markers a-SMA and fibronectin in liver” value in the assay on a-SMA and fibronectin is “significant reductions”. Besides, in the assay on B16F10 cells (10 mg/Kg i.p., day 21, vs isotype control), the “reduction of tumor number (black metastatic colonies)” value is recorded as “about 46%”. The “anti-tumor effect, tumor number” value with B16F10 cells (10 mg/Kg i.p., vs isotype control) is on record as “significant reduction of tumor number”. Further, in the assay on B16F10 cells (vs isotype control), the “tumor burden as indicated by lung weight” value is “much less tumor burden”. In assay [1], the “Col1a1 staining, image quantification” value was 9.17 intensity units; the “Col1a1 staining, qualitative” value is reported as “reduced levels of Col1a1 staining”; the “overall reduction in Col1a1” value worked out at 48%. Also, the “IHC detection of Gal3 on macrophages” value in assay [2] (10 μg/mL, vs mIgG control) is recorded as “clearly detected Gal3 expression on macrophages”. Besides, the “MFI of stained RAW cells vs isotype control” value in assay [2] (10 μg/ml, flow cytometry) is given as “more than 10 folds”. Moreover, in assay [3], the “production of IL-2” value is “enhanced the production of IL-2”. Moreover, the Gal3 peptide bound entry with hGal3 peptide was “peptide 6”.
